The target of series [1] is T1, R17 bacteriophage coat protein (Bacteriophage R17, UniProt P69170 P69170:1-129). Put plainly: filter; value only in figure; TMK buffer 10 mM Mg acetate, 80 mM KCl, 100 mM Tris pH 8.5, 4 C; near-quantitative crosslinking at 325 nm. To be noted: tags: purified from R17 phage propagated in E. coli S26; chain copies: 2; label: 32P; hairpin.
For series [2], the target named is T2, HIV-2 Rev (Human immunodeficiency virus 2, UniProt P04615 P04615:1-100).
T2 sequence: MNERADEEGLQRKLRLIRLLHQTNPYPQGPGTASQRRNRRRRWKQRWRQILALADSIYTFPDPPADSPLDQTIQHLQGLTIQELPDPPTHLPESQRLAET
Nature of the series: photocrosslinks (data not shown); no laser-independent crosslink (FIG. 19). The settings on record: hairpin.

Series [3] addresses T3, HIV-1 Rev (Human immunodeficiency virus 1, UniProt P04618 P04618:1-116). Put plainly: monophasic; crosslinks with and without laser, also at 50 nM Rev in human nuclear extract (FIG. 20). To be noted: hairpin. Here is the method: To test for the ability of trunc24 (SEQ ID NO:59) to discriminate HIV-1 Rev in a complex mixture, trunc24 and 10 µg of human fibroblast nuclear extract together with decreasing amounts of HIV-1 Rev (FIG. 20). At 50 nM Rev and a 1:100 weight ratio of Rev to nuclear extract, it was possible to see a very significant crosslinked product between trunc24 and Rev.

Series [4] has as its target T1, R17 bacteriophage coat protein. Put plainly: filter; value only in figure; TMK buffer 10 mM Mg acetate, 80 mM KCl, 100 mM Tris pH 8.5, 4 C. The settings on record: tags: purified from R17 phage propagated in E. coli S26; chain copies: 2; label: 32P; hairpin. Here is the method:
(§1) RNA-protein binding curves for hairpin variants RNA1 (SEQ ID NO:1), RNA-2 (SEQ ID NO:2) and RNA-3 (SEQ ID NO:3) to the bacteriophage R17 coat protein are shown in FIG. 7. The association constants between coat protein and the RNA hairpin variants were determined with a nitrocellulose filter retention assay described by Carey and co-workers (Carey et al. (1983) supra). A constant, low-concentration of ^32p-labeled RNA was mixed with a series of coat protein concentrations between 0.06 nM and 1 µM in 10 mM magnesium acetate, 80 mM KCL, 80 Ag/ml BSA, and 100 mM Tris-HCl (pH 8.5 at 4° C.) (TMK buffer). These were the same solution conditions used in the crosslinking experiments. After incubation at 4° C. for 45–60 min, the mixture was filtered through a nitrocellulose filter and the amount of complex retained on the filter determined by liquid scintillation counting.

Series [5] has the same target. Put plainly: photocrosslinking at 308 nm 5 min, 6.75 nM RNA, 120 nM protein. The settings on record: tags: purified from R17 phage propagated in E. coli S26; chain copies: 2; hairpin. As for the experimental part: RNA-7 (SEQ ID NO:4) (FIG. 11) was prepared using methodology as reported in Example 1 using a plasmid instead of a DNA template. The photocrosslinking was performed as described in Example 3. A 4 ml reaction mixture consisting of 6.75 nM RNA and 120 nM R17 coat protein was irradiated, 2 ml at a time, at 308 nm with unfocused emission from a XeCl excimer laser. The laser produced 50 mJ/pulse and was operated at 10 Hz. The reaction proceeded to near quantitative crosslinking, 85–90%, in 5 min of irradiation. After crosslinking, 1 ml of the total reaction mixture was removed; EDTA (80 mM), SDS (0.1%), and CaCl_2 (0.1 mM) were added; the free (unbound) RNA present was purified away; and the protein digested with Proteinase K at 60° C. for 30 min. The RNA bound to residual protein was ethanol precipitated to remove salts and spun to a pellet. The pellet was washed three times with 70% ethanol to remove any residual salts. A reverse transcription reaction was employed to make a complementary DNA copy of the RNA template. A 13-base […] was annealed to the RNA and the reverse transcription reaction was performed under the standard conditions of the manufacturer, Gibco (Gaithersburg, Md.), and was stopped after 1 hr. […] No stop in the 31 nucleotide region of the gel appeared; this established that the reverse transcriptase had read through the position of the crosslink. […]

The target is the same in series [6]. Nature of the series: filter; value only in figure; TMK buffer 10 mM Mg acetate, 80 mM KCl, 100 mM Tris pH 8.5, 4 C; crosslinks max about 40% at 308 nm. The settings on record: tags: purified from R17 phage propagated in E. coli S26; chain copies: 2; label: 32P; hairpin. As for the experimental part: as §1
^32P-Labeled RNA sequences RNA-1 (SEQ ID NO:1) and RNA-2 (SEQ ID NO:2) (5 nM) and R17 coat protein (120 nM) were each incubated on ice in 100 mM Tris-HCl (pH 8.5 at 4° C.), 80 mM KCl, 10 mM magnesium acetate, […] of BSA for 15–25 min before irradiations. These are conditions under which the RNA is fully bound to the coat protein. […] Crosslinked RNA was separated from uncrosslinked RNA by PAGE, and the yields were determined by autoradiography.

Series [7] addresses T2, HIV-2 Rev. Nature of the series: photocrosslinking 325 nm 4 min, 500 nM protein, 20 ug tRNA, 37 C. The settings on record: hairpin. From the text:
(§2) The sequences are aligned for maximum homology to the 6a sequence (SEQ ID NO:5). Underlines represent potential base pairing as indicted by computer RNA folding algorithms. Dashed underlines represent the 6a ligand "bubble" motif. Sequences flanked by underline represent either loop or bulge regions. Dashes are placed to maximize alignment with 6a. * denotes that two isolates were obtained. +indicates laser independent crosslinking and—denotes the lack of laser independent crosslinking to HIV-1 Rev. […] FIGS. 18 and 19 show the sequence of Trunc2 (SEQ ID NO:58) and Trunc24 (SEQ ID NO:59) and the specificity results. 500 nM protein, 20 µg tRNA, and approximately 1 nM of kinased trunc2 RNA were incubated for 10 min. at 37° C. and irradiated for 4 min at 325 nm. t2-trunc2 RNA irradiated without added protein; t2Rev1/0'-trunc2 RNA, HIV-1 Rev protein and 0 min. of irradiation; t2/Rev1/4'-trunc2 RNA, HIV-1 Rev protein, adn 4 min. of irradiation; t2/Rev1/4'/ PK-trunc2 RNA, HIV1 Rev protein, 4 min. or irradiation, and proteinase K treated as in FIG. 1; t2/Rev2/4'-trunc2 RNA, HIV-2 Rev protein, and 4 min. of irradiation; t2/Tat/ 4'-trunc2 RNA, HIV-1 Tat protein, and 4 min. of irradiation. R-free RNA; XL-crosslinked nucleoprotein complex.

Series [8] has as its target T3, HIV-1 Rev. Put plainly: monophasic; laser-dependent crosslinking at 325 nm. The settings on record: hairpin.
From the text: as §2

T1 sequence (P69170 whole entry, one chain of several): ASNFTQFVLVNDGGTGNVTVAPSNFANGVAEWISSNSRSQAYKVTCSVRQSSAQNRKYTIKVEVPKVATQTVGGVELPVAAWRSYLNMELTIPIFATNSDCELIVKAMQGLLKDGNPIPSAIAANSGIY
T3 sequence (P04618 whole entry, one chain of several): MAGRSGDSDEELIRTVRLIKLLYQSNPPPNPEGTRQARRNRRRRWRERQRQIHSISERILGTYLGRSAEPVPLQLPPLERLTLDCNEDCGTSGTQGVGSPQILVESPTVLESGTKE

Turning to GGGAGCGAGCAAUAGCCGC (ssRNA, 5-iodouracil in place of U) [RNA-2], the binding result in series [1] is “binds”.

What is called Kd is the concentration at which binding is half-saturated. Higher therefore signals lower affinity. Consider GGGGAUUAACAGGCACACCUGUUAACCCU (ssRNA, 5-iodouracil in place of all U) [trunc24], for which the binding result with HIV-2 Rev [2] is “binds”. In the series with HIV-1 Rev [3], this molecule yielded a Kd of 20 nM.

Take GGGAGCGAGCAAUAGCCGC (ssRNA) [RNA-3]: the binding result in series [4] is listed as “binds”.

As for GAACAUGAGGAUUACCCAUGAAUUCGAGCUCGCCCGGGCUCUAG (ssRNA, 5-iodouracil in place of U) [RNA-7], the binding result in series [5] is on record as “binds”.

In the case of GGGAGCGAGCAAUAGCCGC (ssRNA, 5-bromouracil in place of U) [RNA-1], the binding result in series [6] was “binds”.

On to GGGUGUAUGAAACACCACGUGUGUUUCCACUC (ssRNA, 5-iodouracil in place of all U) [trunc2], for which, in the series with HIV-2 Rev [7], the binding result was “binds”. This molecule also registered a Kd with HIV-1 Rev [8] of 0.5 nM.

Source of the values: US5763177, “Systematic evolution of ligands by exponential enrichment: photoselection of nucleic acid ligands and solution selex” (NeXstar Pharmaceuticals, Inc.).
